In patent CN115536746A (NANJING SANHOME PHARMACEUTICAL CO LTD, dated 2022):

T1: 人源CRTAM蛋白全长 on CHO-K1-hCRTAM cells (human, UniProt O95727 18-393)
T1 construct: also called 细胞表面hCRTAM
T1 sequence: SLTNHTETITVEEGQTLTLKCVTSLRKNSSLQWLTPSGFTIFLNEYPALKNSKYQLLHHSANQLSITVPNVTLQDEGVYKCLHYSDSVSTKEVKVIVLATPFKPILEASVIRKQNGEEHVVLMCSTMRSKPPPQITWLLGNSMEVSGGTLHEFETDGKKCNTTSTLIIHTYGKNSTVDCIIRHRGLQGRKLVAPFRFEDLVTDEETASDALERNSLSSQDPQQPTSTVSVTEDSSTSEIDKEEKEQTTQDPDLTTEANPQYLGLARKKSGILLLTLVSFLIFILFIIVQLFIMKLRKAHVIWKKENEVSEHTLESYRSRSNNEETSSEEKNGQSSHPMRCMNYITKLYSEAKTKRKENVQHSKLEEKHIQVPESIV

T2: 猴源CRTAM蛋白全长 on CHO-K1-cCRTAM cells (猴源 (食蟹猴, cynomolgus monkey), UniProt O95727 18-393 (human entry))
T2 construct: also called 细胞表面食蟹猴CRTAM
T2 chain: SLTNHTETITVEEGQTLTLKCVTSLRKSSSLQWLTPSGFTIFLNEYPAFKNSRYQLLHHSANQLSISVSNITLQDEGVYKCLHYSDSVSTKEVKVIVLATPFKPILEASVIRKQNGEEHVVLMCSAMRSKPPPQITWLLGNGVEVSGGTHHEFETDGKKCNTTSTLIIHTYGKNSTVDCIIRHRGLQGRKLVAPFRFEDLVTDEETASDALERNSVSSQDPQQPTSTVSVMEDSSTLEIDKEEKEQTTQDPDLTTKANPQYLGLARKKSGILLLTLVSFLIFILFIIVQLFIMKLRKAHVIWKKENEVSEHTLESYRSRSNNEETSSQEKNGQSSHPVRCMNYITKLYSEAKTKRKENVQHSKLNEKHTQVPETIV


Assays:
[1] = molecular target: T1, 人源CRTAM蛋白全长 on CHO-K1-hCRTAM cells; test: flow cytometry on CHO-K1-hCRTAM cells
[2] = molecular target: T2, 猴源CRTAM蛋白全长 on CHO-K1-cCRTAM cells; test: flow cytometry on CHO-K1-cCRTAM cells

Row | Binder | EC50 [1] [µg/mL] | EC50 [2] [µg/mL]
1 | HuC110-34 (antibody, V domains shown, also called HuC110-34-biotin; 抗CRTAM人源化抗体HuC110-34) VH: QVQLVQSGAEVKKPGASVKVSCKASGYTFTNNDINWVKQAPGQRLEWIGWIYPRDGSTQYNEKFRGRATITVDTSASTAYMELSSLRSEDTAVYFCARGLVDYWGQGTLVTVSS VL: DVVMTQSPDSLAVSLGERATINCRSSQSLVHSNKNTYLHWYLQKPGQPPKLLIYKVSNRFSGVPDRFSGSGSGTDFTLTISSLQAEDVAVYYCSQSTRVPWTFGGGTKLEIK | 0.0417 | 0.0507
2 | 人源化抗体5A11 (WO2019/086878) (antibody, human IgG1, lambda, V domains shown, also called 阳性对照抗体; 对照抗体) VH: EVQLVESGGGLVQPGGSLKLSCAASGFTFSDAAMYWVRQASGKGLEWVARIRTKTNNYAAHYVESVKGRFTVSRDDSKNTVYLQMNSLKTEDTAMYYCTSVPQGTQDYWGQGTLVTVSS VL: SYELTQPSSVSVSPGQTARITCSGDVLSKRYAQWSQQKPGQAIVSVIYKDSERPSGIPERFSGSSSGTTATLTISGAQVEDEADYYCLSTYADDNLPVFGGGTKLTVLG | 0.0607 | 
3 | HuC124-42 (antibody, V domains shown, also called HuC124-42-biotin; 抗CRTAM人源化抗体HuC124-42) VH: QVQLVQSGAEVKKPGSSVKVSCKASGYSFSNYWIEWVRQAPGQGLEWIGEILPGVPTIYYNAKFKDRVTFTADKSTSTAYMELSSLRSEDTAVYYCSRDPWFAYWGQGTLVTVSA VL: EIVLTQSPATLSVSPGERATFSCRASQSIGTSLHWFQQKPGQAPRLLIKYASQSISGIPARFSGSGSGTEFTLTISSVQSEDFAVYYCQQSNNWPFTFGGGTKLEIK |  | 0.0904
4 | HuC94-31 (antibody, V domains shown, also called HuC94-31-biotin; 抗CRTAM人源化抗体HuC94-31) VH: EVQLLESGGGLVQPGGSLRLSCAASGFTFSTSAMSWVRQAPGKGLEWVATISSGGDYTYYSDNVKGRFTISRDNSKSTLYLQMNSLRAEDTAVYYCTLGYDEADYWGQGSLLTVSS VL: DIQMTQSPSSLSASVGDRVTITCRASQDISNYLNWYQQKPGKAPKLLIYYTSRLHSGVPSRFSGSGSGTDYTFTISSLQPEDIATYYCQQGDTFPWTFGGGTKLEIK |  | 0.035
